Like-named read-outs stand apart in the source and are kept apart here. Values belong to the molecule of their own block, whether it stands above or below them.
Tests used:
dopamine D2 receptor [1] = target: T1, dopamine D2 receptor (Homo sapiens, UniProt P14416); conditions: COS-7, receptor + Gα16, 10 μM dopamine, cited from earlier work
dopamine D2 receptor [2] = target: T1, dopamine D2 receptor; conditions: 10 μM dopamine; for IP Formation % Res.: relative to basal
melatonin Mel1c receptor [3] = target: melatonin Mel1c receptor
melatonin Mel1b receptor = target: T2, melatonin Mel1b receptor
T2 sequence (P49286 whole entry, species assumed, looked up): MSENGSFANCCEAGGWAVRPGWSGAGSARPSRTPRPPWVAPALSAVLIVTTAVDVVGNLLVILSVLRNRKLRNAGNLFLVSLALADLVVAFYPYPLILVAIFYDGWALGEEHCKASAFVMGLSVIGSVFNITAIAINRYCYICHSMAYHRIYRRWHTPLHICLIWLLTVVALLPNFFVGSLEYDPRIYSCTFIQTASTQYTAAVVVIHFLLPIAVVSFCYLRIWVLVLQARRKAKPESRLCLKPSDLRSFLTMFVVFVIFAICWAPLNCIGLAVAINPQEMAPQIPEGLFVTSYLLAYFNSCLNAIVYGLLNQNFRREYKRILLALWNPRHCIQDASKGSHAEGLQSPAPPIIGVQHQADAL

dopamine D2 receptor [4] = target: dopamine D2 receptor
melatonin Mel1c receptor [5] = target: melatonin Mel1c receptor; remark: listed apart in the source
[6] = target: opioid receptor-like (ORL1) receptor
[7] = target: formyl peptide (fMLP) receptor
[8] = COS-7, receptor + 16z25 chimera
[9] = COS-7, receptor + 16z44 chimera

T1 sequence (P14416 whole entry): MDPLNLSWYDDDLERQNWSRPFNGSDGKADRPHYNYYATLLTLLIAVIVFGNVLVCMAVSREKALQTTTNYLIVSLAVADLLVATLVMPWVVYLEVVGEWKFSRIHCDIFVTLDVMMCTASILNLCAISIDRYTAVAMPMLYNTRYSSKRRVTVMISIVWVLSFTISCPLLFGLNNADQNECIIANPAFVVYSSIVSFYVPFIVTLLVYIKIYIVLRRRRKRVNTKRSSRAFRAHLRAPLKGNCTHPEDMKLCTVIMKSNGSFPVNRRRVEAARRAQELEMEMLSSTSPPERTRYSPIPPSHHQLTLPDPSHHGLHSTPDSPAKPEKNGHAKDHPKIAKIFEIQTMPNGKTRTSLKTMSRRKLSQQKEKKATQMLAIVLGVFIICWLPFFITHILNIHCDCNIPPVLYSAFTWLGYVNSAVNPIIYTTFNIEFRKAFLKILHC
Sequence of complement C5a receptor (P21730 whole entry): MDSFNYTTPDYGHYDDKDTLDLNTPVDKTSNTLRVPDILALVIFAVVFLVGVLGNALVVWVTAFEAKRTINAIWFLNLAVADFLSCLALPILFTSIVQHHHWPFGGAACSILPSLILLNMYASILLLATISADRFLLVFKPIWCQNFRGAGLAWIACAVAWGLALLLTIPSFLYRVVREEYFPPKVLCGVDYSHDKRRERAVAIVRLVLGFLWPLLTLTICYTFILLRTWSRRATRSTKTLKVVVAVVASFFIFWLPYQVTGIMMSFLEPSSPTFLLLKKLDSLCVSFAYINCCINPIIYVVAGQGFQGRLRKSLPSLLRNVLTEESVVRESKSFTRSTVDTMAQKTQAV
T1 sequence (P14416 whole entry): as the sequence (P14416 whole entry) above

IP Formation Agonist (dopamine D2 receptor [2]; [8]): 40.1 ± 0.9
IP Formation % Res. (dopamine D2 receptor [2]; [8]): 324%
IP Formation Agonist (dopamine D2 receptor [2]; [9]): 84.5 ± 6.2
IP Formation % Res. (dopamine D2 receptor [2]; [9]): 302%
Molecule: NCCc1ccc(O)c(O)c1 [dopamine]
IP Formation Agonist (dopamine D2 receptor [1]): 24.0 ± 2.3
IP Formation % Res. (dopamine D2 receptor [1]; relative to basal): 207a %

EC50 of 2-iodomelatonin for IP formation (melatonin Mel1c receptor [3]): 0.4 nM
IP formation, enhancement of the agonist response by coexpressed 16z44 (muscarinic m1 receptor): 34%
IP formation, enhancement of the agonist response by coexpressed 16z44 (5HT1c receptor): 43%
IP formation, enhancement of the agonist response by coexpressed 16z44 (bombesin receptor): 57%
IP formation (PLC stimulation), % Res. (melatonin Mel1b receptor): 177 % Res.
IP formation (PLC stimulation), % Res. (vasopressin V2 receptor): 321 % Res.
IP formation (PLC stimulation), % Res. (complement C5a receptor): 457 % Res.
IP formation (PLC stimulation), % Res. (dopamine D2 receptor [4]): 302 % Res.
IP formation (PLC stimulation), % Res. (melatonin Mel1c receptor [5]): 307 % Res.
IP formation (PLC stimulation), % Res. (α2-adrenergic receptor): 297 % Res.
IP formation (PLC stimulation), % Res. (µ-opioid receptor): 269 % Res.
IP formation (PLC stimulation), % Res. (β2-adrenergic receptor): 307 % Res.
IP formation (PLC stimulation), % Res. (δ-opioid receptor): 548 % Res.
IP formation (PLC stimulation), % Res. [6]: 380 % Res.
IP formation (PLC stimulation), % Res. (adenosine A1 receptor): 188 % Res.
IP formation (PLC stimulation), % Res. (melatonin Mel1a receptor): 171 % Res.
IP formation (PLC stimulation), % Res. (dopamine D1 receptor): 287 % Res.
IP formation (PLC stimulation), % Res. (κ-opioid receptor): 257 % Res.
IP formation (PLC stimulation), % Res. [7]: 428 % Res.
B1: 16z44 chimera (protein)
chain: MARSLTWRCCPWCLTEDEKAAARVDQEINRILLEQKKQDRGELKLLLLGPGESGKSTFIKQMRIIHGAGYSEEERKGFRPLVYQNIFVSMRAMIEAMERLQIPFSRPESKHHASLVMSQDPYKVTTFEKRYAAAMQWLWRDAGIRACYERRREFHLLDSAVYYLSHLERITEEGYVPTAQDVLRSRMPTTGINEYCFSVQKTNLRIVDVGGQKSERKKWIHCFENVIALIYLASLSEYDQCLEENNQENRMKESLALFGTILELPWFKSTSVILFLNKTDILEEKIPTSHLATYFPSFQGPKQDAEAAKRFILDMYTRMYTGCVDGPEGSNRNKETKEIYSHFTCATDTSNIQFVFDAVTDVIIQNNLKYIGLC

Source: patent US6462178B1, “G protein” (Yong Hou Wong, priority 1999, dated 2002)
